Laboratory results taken from PMC5261137 (Proteins, 2016).

Molecular target: T1, SipD^C244S (residues 39-343 C244S) (Salmonella, UniProt Q56026 39-343, C244S)
T1 sequence: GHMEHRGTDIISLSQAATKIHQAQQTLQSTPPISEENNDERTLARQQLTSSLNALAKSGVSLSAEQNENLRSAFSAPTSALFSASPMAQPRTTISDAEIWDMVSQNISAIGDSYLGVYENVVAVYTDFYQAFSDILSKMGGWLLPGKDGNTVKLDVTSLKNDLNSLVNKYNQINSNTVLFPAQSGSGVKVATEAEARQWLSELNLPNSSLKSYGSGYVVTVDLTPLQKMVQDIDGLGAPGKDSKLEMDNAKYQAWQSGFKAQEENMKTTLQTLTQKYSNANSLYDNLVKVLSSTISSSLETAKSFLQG
Assay: NMR titration

B1: SipB^11-232 (domain or fragment)
chain: SGYTQNPRLAEAAFEGVRKNTDFLKAADKAFKDVVATKAGDLKAGTKSGESAINTVGLKPPTDAAREKLSSEGQLTLLLGKLMTLLGDVSLSQLESRLAVWQAMIESQKEMGIQVSKEFQTALGEAQEATDLYEASIKKTDTAKSVYDAATKKLTQAQNKLQSLDPADPGYAQAEAAVEQAGKEATEAKEALDKATDATVKAGTDAKAKAEKADNILTKFQG
B1: binds.
